Kd data for one molecule are collected here from article PMC8670446 (2021).

The assay concerns the target Ssa1 (S. cerevisiae, UniProt P10591 1-642). The assay is described as follows: BLI; apparent KD from equilibrium levels; His6-SUMO-Ssa1 immobilized. (In BLI a coated tip is dipped into the sample, and binding shifts an interference pattern.)

Ssa1, sequence (P10591 whole entry): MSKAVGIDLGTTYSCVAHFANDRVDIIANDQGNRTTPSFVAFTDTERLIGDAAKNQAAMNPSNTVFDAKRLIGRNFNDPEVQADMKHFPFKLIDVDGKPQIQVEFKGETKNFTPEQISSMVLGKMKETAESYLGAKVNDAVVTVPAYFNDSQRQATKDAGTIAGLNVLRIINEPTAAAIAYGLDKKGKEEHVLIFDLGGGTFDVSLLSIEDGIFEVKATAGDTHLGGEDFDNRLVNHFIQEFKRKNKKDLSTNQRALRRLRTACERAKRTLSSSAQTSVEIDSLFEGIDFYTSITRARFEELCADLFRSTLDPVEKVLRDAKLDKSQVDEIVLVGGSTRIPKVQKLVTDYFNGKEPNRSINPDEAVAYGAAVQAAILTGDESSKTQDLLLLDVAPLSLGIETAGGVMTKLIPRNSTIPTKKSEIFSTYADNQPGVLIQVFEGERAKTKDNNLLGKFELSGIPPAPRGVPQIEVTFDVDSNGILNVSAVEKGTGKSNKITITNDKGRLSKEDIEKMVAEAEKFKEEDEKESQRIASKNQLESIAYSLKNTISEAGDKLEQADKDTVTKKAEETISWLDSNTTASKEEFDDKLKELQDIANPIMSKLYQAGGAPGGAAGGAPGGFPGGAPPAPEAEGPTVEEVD

B1: Sis1 (natural protein)
chain: MVKETKLYDLLGVSPSANEQELKKGYRKAALKYHPDKPTGDTEKFKEISEAFEILNDPQKREIYDQYGLEAARSGGPSFGPGGPGGAGGAGGFPGGAGGFSGGHAFSNEDAFNIFSQFFGGSSPFGGADDSGFSFSSYPSGGGAGMGGMPGGMGGMHGGMGGMPGGFRSASSSPTYPEEETVQVNLPVSLEDLFVGKKKSFKIGRKGPHGASEKTQIDIQLKPGWKAGTKITYKNQGDYNPQTGRRKTLQFVIQEKSHPNFKRDGDDLIYTLPLSFKESLLGFSKTIQTIDGRTLPLSRVQPVQPSQTSTYPGQGMPTPKNPSQRGNLIVKYKVDYPISLNDAQKRAIDENF
Consider B1, for which the Kd came to 210 nM.
